± gives the standard deviation.
Assay: protein stability index of a GFP-peptide fusion (GPS, HEK-293T) (PSI 1-6); higher = more stable
[1] = treatment: DMSO, c terminus: a fixed tail appended
[2] = treatment: MLN4924 1 uM, 8 h, c terminus: a fixed tail appended
[3] = treatment: DMSO, c terminus: native
[4] = treatment: MLN4924 1 uM, 8 h, c terminus: native
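Also: 24-mer peptide tiles fused after GFP, lentivirally expressed, FACS-sorted into six equal bins by GFP/DsRed ratio, decoded by Illumina sequencing, PSI is the read-weighted mean bin number.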

Sequence | protein stability index [1] | protein stability index [2] | protein stability index [3] | protein stability index [4]
RDEHRARAMKIPFTNDKIINLPVE [NFE2L1] | 4.12 ± 0.36 | 3.95 ± 0.14 |  | 
PVRTTNKISKQFVAPADVRRLLSY [ZSWIM9] | 2.44 ± 0.17 | 2.84 ± 0.13 |  | 
HSQELTNEKEKALQAQVQYQQQHE [SASS6] | 5.45 ± 0.26 | 5.51 ± 0.14 |  | 
VEALQLSARWLEVLRTYLELVLCV [FBXO33] | 2.58 ± 0.35 | 2.46 ± 0.73 |  | 
HRTVKLVPWSQCLQNFLLHGTKNV [WSB1] | 2.19 ± 0.17 | 1.99 ± 0.21 |  | 
VKKNSAKSMGLKKKAFVWARNIGF [ACSBG2] | 2.03 ± 0.12 | 2.24 ± 0.22 |  | 
EQVNFCESSNDFGPYEGGGPVAGL [ZBTB22] | 4.3 ± 0.16 | 4.32 ± 0.25 |  | 
QELPPYNGFGLVEDSAQNCFALIP [EFHC1] | 3.38 ± 0.18 | 3.4 ± 0.24 |  | 
TPLQQVSIEEILEEQRVEQQTKLE [LSM1] | 5.37 ± 0.17 | 5.34 ± 0.29 |  | 
VCCCELGVNPDQVEKIRKLPNTLL [ANKRD40] | 2.26 ± 0.36 | 2.82 ± 0.32 |  | 
PKFKKWCDDYFFIAHRGERRGIGG [CPOX] | 2.54 ± 0.14 | 2.56 ± 0.26 |  | 
VLTLPFDVVKTQRQVALGAMEAVR [SLC25A39] | 2.51 ± 0.36 | 2.71 ± 0.26 |  | 
KIIREIDFYREDEDEEEEEGGEGE [TRIM55] | 5.18 ± 0.26 | 5.06 ± 0.24 |  | 
EQGAIPRLVQLLVRAHQDTQRRTS [CTNNB1] | 3.18 ± 0.19 | 3.26 ± 0.22 |  | 
VASEMRFVQDLVRALEQEKLQGVE [DAPK3] | 4.42 ± 0.44 | 4.73 ± 0.37 |  | 
WQAKREEEEEEEEEAEAGEEAVPE [CHGA] | 5.6 ± 0.47 | 5.7 ± 0.22 |  | 
SDVVEYAKEKLESFIKNSDSFDKF [PCMTD1] | 3.7 ± 0.17 | 4.16 ± 0.38 |  | 
LEFRSFWELIGEAAKSVKLERPVR [S100A14] | 1.87 ± 0.2 | 2.33 ± 0.35 |  | 
WEIAKAEVEKRGINGSEGDGAEIA [DYNC2LI1] | 5.26 ± 0.22 | 5.18 ± 0.27 |  | 
PAVENKQQIGDAIRMIVRGTLGSC [PLK2] | 3.03 ± 0.32 | 3.03 ± 0.19 |  | 
GPPSRGGHMDDGGYSMNFNMSSSR [RBMX] | 4.25 ± 0.32 | 3.96 ± 0.34 |  | 
RRSVRKNHMYSCRFSRQCVVDKDK [HNF4A] | 3.02 ± 0.24 | 3.2 ± 0.24 |  | 
HPCGDKNCPAHWLAQDWERCNTTC [ADAMTSL2] | 4.21 ± 0.14 | 3.99 ± 0.26 |  | 

Sequence | protein stability index [1] | protein stability index [2] | protein stability index [3] | protein stability index [4]
YHEAPMTRKHYQVTGYGINGTGDS [POMT2] | 2.97 ± 0.36 | 3.42 ± 0.31 |  | 
ISLNMCLLGALVLLGLGVLLFSGG [PBXIP1] | 2.03 ± 0.24 | 2.15 ± 0.2 |  | 
LEVADFLIKAGADIELGCSTPLME [ANKRD17] | 2.89 ± 0.56 | 2.82 ± 0.22 |  | 
LHVKRSMGWKKACDELELHQRFLR [ZMYND11] | 2.31 ± 0.12 | 2.55 ± 0.45 |  | 
FVLGKGRGAAAAGGPQRIPAHRFV [BTBD1] | 2.3 ± 0.25 | 2.71 ± 0.31 |  | 
LSAFYLSYFDMLYPEDSSWAAKAP [SPDEF] | 2.63 ± 0.59 | 2.48 ± 0.52 |  | 
ENVSVEMLLRKFAESKGTGREKPG [FCHO1] | 3.9 ± 0.086 | 4.23 ± 0.26 |  | 
GKLKWNLAAVTPHDFIEHILRKLP [CCND2] | 2.61 ± 0.38 | 2.16 ± 0.18 |  | 
IRKGESRSEALAVDGAGKPGAEEA [CHGA] | 5.48 ± 0.12 | 5.43 ± 0.31 |  | 
VYDNEKKLQLQLNETKSQAFVSNS [PLD5] | 4.48 ± 0.47 | 4.33 ± 0.19 |  | 
PPYSRLSPRDEYKPLDLSDSTLSY [SMAD6] | 3.89 ± 0.18 | 3.84 ± 0.24 |  | 
LLLLSKAKLVPSEREASPSNSCQD [IKZF1] | 3.31 ± 0.099 | 3.14 ± 0.15 |  | 
APPPLKDDPEGDRDGCVITKVLL [ZBED3] |  |  | 5.4 ± 0.25 | 5.43 ± 0.4
PFTVSPNTHVSQVFNLFRTMGLRH [CLCN6] | 2.39 ± 0.45 | 2.45 ± 0.38 |  | 
PQVWREAATQVFFALGLGFGGVIA [SLC6A17] | 3.78 ± 0.85 | 3.4 ± 0.82 |  | 
TEKTTTVLSESSGPSNTSHSSSRD [C2CD2L] | 5.42 ± 0.15 | 5.31 ± 0.25 |  | 
TRQLHEKTSQLSYYYMGFYIHSCP [ATE1] | 2.83 ± 0.71 | 2.54 ± 0.41 |  | 
TLLPASLFVNSHPGIDRPGMLCSF [DCAF4] | 2.31 ± 0.36 | 2.2 ± 0.22 |  | 
PSTLGRCKAFSTCVSHLIIVTVHY [OR10K2] | 3.07 ± 0.41 | 2.89 ± 0.5 |  | 
VFPETAFIAVTSYQNHKITQLKIE [TBX5] | 2.22 ± 0.35 | 2.21 ± 0.32 |  | 
VTQPCGDCGTIQENWVCLSCYQVY [HDAC6] | 2.89 ± 0.57 | 2.96 ± 0.7 |  | 
PLSPPTAPDRATAVATASRLGPYV [TRIB3] | 4.72 ± 0.26 | 4.65 ± 0.091 |  | 
HRKAVHLRTRGRTRGWVQTLARMS [C6orf223] | 2.57 ± 0.34 | 2.49 ± 0.17 |  | 

Sequence | protein stability index [1] | protein stability index [2] | protein stability index [3] | protein stability index [4]
LRRKSPASGQGPMCNVKAPLGSPS [ADAMTS4] | 3.85 ± 0.2 | 3.86 ± 0.46 |  | 
LILASELSRLSVNSVTAGDYSRPL [TSN] | 2.45 ± 0.33 | 2.37 ± 0.19 |  | 
YPASIVDEPTFKVLLKTADPRYEL [ZBED1] | 2.89 ± 0.26 | 3.27 ± 0.29 |  | 
RETLKRKVSGNRCASPVTGPGSKR [ESR2] | 3.92 ± 0.32 | 4.1 ± 0.2 |  | 
PFSEFFKLRFNRKKKGMYRKAITE [PWWP2B] | 2.35 ± 0.43 | 2.9 ± 0.27 |  | 
MQRGARLPAEVAGLSQVLLRGGGQ [POMT2] | 3.6 ± 0.27 | 3.64 ± 0.21 |  | 
QVAPLTHVFQRQKSELSDGIAILV [TRIM55] | 2.26 ± 0.49 | 2.26 ± 0.22 |  | 
GDVMHLSQSPSVSQLSVLSLSGVM [PRAME] | 2.43 ± 0.42 | 2.28 ± 0.31 |  | 
PVHLVDKLPLPSTLRSHLKSFSMA [RAB40A] | 2.6 ± 0.085 | 2.63 ± 0.19 |  | 
YYERVLKRKTFNKVLGHVNNILIS [GDAP1] | 2.35 ± 0.35 | 2.64 ± 0.7 |  | 
SYNACGVLSHIMFDGPEAWGVCEP [ZER1] | 2.13 ± 0.45 | 2.44 ± 0.41 |  | 
LLIVKLEEDCAWSQELPPPDPGPS [ZNF263] | 2.33 ± 0.29 | 2.42 ± 0.29 |  | 
PPPPPPPPAELKAEPGFEPADCKR [CEBPB] | 5.52 ± 0.16 | 5.4 ± 0.28 |  | 
TITTAAATSVTVPGAGVPSGSGGT [ZBTB22] | 4.9 ± 0.19 | 4.85 ± 0.26 |  | 
AEEGWSPTPKCLRLCFFPFVENGH [CFHR2] | 1.96 ± 0.28 | 2.12 ± 0.32 |  | 
LGRPDSLELQRQREARKRALARKQ [RSPH3] | 4.6 ± 0.17 | 4.43 ± 0.19 |  | 
INGSEGDGAEIAEKFVFFIGSKNG [DYNC2LI1] | 2.99 ± 0.21 | 3.4 ± 0.26 |  | 
SKAQELGGAGREDPGLWSRLCRLA [ZSWIM9] | 2.96 ± 0.13 | 3.38 ± 0.33 |  | 
AEKNCMTFFEVSPLCNFNVIESFT [RAB40C] | 2.3 ± 0.64 | 2.02 ± 0.24 |  | 
LALRTLPGPSWVRGSGPSVLSRLQ [ALKBH7] | 2.62 ± 0.14 | 2.48 ± 0.3 |  | 
GTTVTFDDLMGILCKSVLEIERAI [FEM1C] | 2.31 ± 0.26 | 2.14 ± 0.42 |  | 
LLEATCPFGENAEFPADISSITEA [NFE2L1] | 4.48 ± 0.28 | 4.65 ± 0.17 |  | 
HEMREQHDAQVRLYKEELEQTYHA [LMNB1] | 4.08 ± 0.38 | 4.27 ± 0.48 |  | 

Sequence | protein stability index [1] | protein stability index [2] | protein stability index [3] | protein stability index [4]
SHLLVVEPEKLYAMPDPAGPDGHL [ESRRA] | 3.68 ± 0.17 | 3.82 ± 0.27 |  | 
LPWLSLRALKFRERDALEAVFRFW [DNAAF3] | 2.46 ± 0.24 | 2.49 ± 0.28 |  | 
ANFHLNDLEAPHEDDAEGEGEWD [TCF25] |  |  | 5.63 ± 0.14 | 5.39 ± 0.22
WEKKPFSEDVNWGYEKRNLARVPK [CHGB] | 3.38 ± 0.3 | 3.87 ± 0.17 |  | 
APPTPPEEEDLRRRLKYFFMSPCD [MCOLN1] | 4.27 ± 0.23 | 4.15 ± 0.23 |  | 
HSGEKPYKCSDCGKTFKQSSNLGQ [ZNF232] | 3.76 ± 0.3 | 3.57 ± 0.37 |  | 
EFIQEIRRQLEACQRERAFSVKFE [OAS1] | 2.29 ± 0.31 | 2.27 ± 0.56 |  | 
RTSCSSRPCVPPSCHGYTLPGACN [KRT33B] | 2.67 ± 0.3 | 2.56 ± 0.17 |  | 
KARVLRSKSLCHDEIENLLDSDHR [CDC25B] | 4.4 ± 0.13 | 4.62 ± 0.15 |  | 
RLWRLFQTLDVNRDGGLCVNDLAV [SLC25A25] | 2.56 ± 0.2 | 2.49 ± 0.17 |  | 
KPYAVMVFQTEQKNLFRLEMDMVV [N4BP2L1] | 2.7 ± 0.1 | 2.96 ± 0.88 |  | 
DLAGLGSETPKSQVGTLLFRSRSR [CDC25B] | 3.83 ± 0.35 | 4.11 ± 0.35 |  | 
LLLEMLTFNPHKRISAFRALQHSY [CDK4] | 2.43 ± 0.32 | 2.41 ± 0.25 |  | 
VYRFVCDLQNLLGFTPEELHAILG [ETS2] | 2.21 ± 0.41 | 2.19 ± 0.11 |  | 
VRAAQLCSQHWGGMASFRFPETTF [TBX6] | 2.48 ± 0.59 | 2.1 ± 0.34 |  | 
MTLLPGDNSDYDYSALSCTSDASF [KCNG1] | 3.79 ± 0.27 | 3.87 ± 0.24 |  | 
KLENARLSSEMNTSTVNSAREELM [LMNB1] | 4.59 ± 0.19 | 4.71 ± 0.11 |  | 
GSSGGQQPSGMKEGVKRYEQEHAA [CHCHD6] | 5 ± 0.054 | 5.47 ± 0.21 |  | 
YPVGWPPVQELPPSLRAPPPGGWP [ZMAT5] | 2.39 ± 0.88 | 2.83 ± 0.69 |  | 
KKHEFLTSVLDALSTDMVHAASDP [SMOC2] | 3.33 ± 0.24 | 3.46 ± 0.18 |  | 
